In patent publication US20220112276A1 (Janssen / Centocor, published 2022):
Residue numbers refer to the chain shown, from its start.

B1: 01D09R3 His-tagged VHH (VHH)
VHH: QVQLVESGGGLVQAGGSLRLSCAASGRTFSVYAMGWFRQAPGKERQFVAAITWSGGSTSYADSVKGRFTISRDNAKNTVYLQMNILKPEDTAVYYCAAATNPYFSDYYPDLKYEFDYWGQGTLVTVSS
B2: 01G03R3L His-tagged VHH (VHH)
VHH: QVQLVESGGGSVQAGGSLRLSCAASGRTFSNYAMGWFRQAPGKEREFVAGISRSGGSTYSADSVKGRFTISRDNAKNTVYLQMNSLKPEDTAVYYCAADGLDYALGFRGDYWGQGTLVTVSS
B3: 01C12R2 His-tagged VHH (VHH)
VHH: EVQLVESGGGLVQAGGSLRLSCAASGRTFGSYSMGWFRQAPGKEREFVGAISWSGSSTYKYYEDSVKGRFTISRDNAKNTVPLQMNSLKPEDTGVYFCGGTMERRDPRRTSAYDYWGQGTLVTVSS
B4: 01F04R3LS His-tagged VHH (VHH)
VHH: EVQLVESGGGLVQAGGSLRLSCAASGRTFSRYAMGWFRQAPGKEREFVAAIAWSGGAIYYADFVKGQFTISRDNAKNTVDLEMNRLKPEDTAVYYCGSTRDPRVGDKKFYDYWGQGTQVTVSS
B5: 01F12R2 His-tagged VHH (VHH)
VHH: EVQLVESGGGLVQPGGSLRLSCAASGRTFSSYTMGWFRQAPGEEREFVSAISWSSDGTYYKYYTDTVKGRFTISRDNAETTVHLQMNSLKPEDTAVYYCAASSSGTYGDPRSEREYRYWGQGTLVTVSS
B6: 01F03R2LS His-tagged VHH (VHH)
VHH: EVQLVESGGGLVQAGDSLRLSCAASGRTGSSGAMGWFRQGPGKEREFVAALMWRNTVTYKYYEDSVKGRFTISRDNAKNTAYLQMNSLKPEDTAVYYCAADPDTYGDPRNSGAYDYWGQGTLVTVSS
B7: 01G05R2LS His-tagged VHH (VHH)
VHH: QVQLVESGGGLVQAGDSLALSCAGSGDTFSNYAMGWFRQAPGKEREFVADISWYSANIGYADSVKGRFTISRDNAKNMVTLRMNSLKPEDTAVYYCAADRNHWPVKGDYWGQGTQVTVSS
B8: 01D02R3LS His-tagged VHH (VHH)
VHH: QVQLVESGGGLVQAGDSLTLSCAASGRSVGFDTYGMAWFRQAPGKEREFVASIAYNGETTSYADSVQGRFTVTRENAKNTIALRMNGLKPDDTAVYYCAAAQYYLTGTSFPAKFWGQGTLVTVSS
B9: 01F04R2LS His-tagged VHH (VHH)
VHH: EVQLVESGGGLVQTGGSLRLSCAASGRTFSSYAMGWFRQAPGKEPERDFVAALRWSNDRTYYKYYADSVKGRFTISRDNAKNTVYLQMNTLKPEDTAVYYCAGGNYFSDPRVDKEYNYWGQGTQVTVSS
B10: 01E03R3 His-tagged VHH (VHH)
VHH: QVQLVESGGGLVQTGGSLRLSCAASGRTFSVYRVGWFRQAPGKEREFVAAVIWSGASTYKYAADSVKGRFTISRDNAENTVYLQMNSLKPEDTAVYYCAADPLGLPGPDVRVEGGYRHWGQGTLVTVSS
B11: 01E10R3 His-tagged VHH (VHH)
VHH: QVQLVESGGGLVQSGGSLRLSCAASGRTFSDYAMGWFRQAPGKERELVAAITWNGGSTYYADSVKGRFTISRDNAKNTVDLQMNSLKPEDTAVYYCAADPLNSDSAGTYDYWGQGTLVTVSS
B12: 01F09R3 His-tagged VHH (VHH)
VHH: QVQLVESGGGLAQAGGSLTLSCAASGTAAGIDVMGWYRQTPGNSREFVARIFSNDVTHYADSVTGRFTLSRTQDKNTVSLQMNSLKPDDTGVYYCNARIWTGSTTVDYWGQGTQVTVSS
B13: 01H02R3LS His-tagged VHH (VHH)
VHH: QVQLVESGGGLVQPGGSLRLSCAASGSIFSASVMGWYRQGPGKQREFVARISPGGVTHYADSVKGRFTISKDNAKNTVTLQMNSLKPEDTAVYYCNADRFGFEVYWGQGTLVTVSS
B14: 01A07R3LS His-tagged VHH (VHH)
VHH: QVQLVESGGGLVQAGDSLRLSCAASGRTFPTYAMGWFRQAPGKEREFVATIRWSGSTQYKYYADFVKGRFTISRDNAKNTVYLQMDSLKPEDTAVYYCAATTLLGDPRALNEYAYWGQGTQVTVSS
B15: 01G09R3LS His-tagged VHH (VHH)
VHH: B14 VHH with Q1E, G105T, E112A
B16: 01E04R3LS His-tagged VHH (VHH)
VHH: EVQLVESGGGLVQAGDSLRLSCAASGRTFTTYVMGWFRQAPGKDREFVATITWSGSTNYKYYADPVKGRFTISRDNAKNTVYLQMNSLKPEDTAVYYCTSSTVVTDPRKLNEYAYWGQGTLVTVSS
B17: 01C11R2 His-tagged VHH (VHH)
VHH: EVQLVESGGGLVQTGGSLRLSCAASGRTFSTYRMGWFRQAPGKEREFVAAISWSTGSTYYADSVKGRFAISRDNAKNTIYLQMNSLKPEDTAVYYCAAGMVATTRSSAYPYWGQGTQVTVSS
B18: 01G07R3 His-tagged VHH (VHH)
VHH: QVQLVESGGGLVQAGDSLRLSCAASGRTLSFDTYAMGWFRQAPGKEREFVASIDWSGGTTYYADSVKGRFTVTRDNAKNTVTLRMNSLKPADTAVYYCAAAQYYRSGTSFPANYWGQGTLVTVSS
B19: 01A07R3 His-tagged VHH (VHH)
VHH: EVQLVESGGGLVQTGESLRLSCAASGRAFSDLRMAWFRQVPGKEREFVAAVEWRGSSRYYYSADSVKGRFTISRTSPKGETYLQMNGLKPEDTAVYYCAAVSPVVGDPRNSDTYNYWGQGTQVTVSS
B20: 01F05R2LS His-tagged VHH (VHH)
VHH: QVQLVESGGGLVQAGGSLRLSCAASGSIFAINGMGWYRQAPGKQRELVAVITRGGSTNYADSVKGRFTISRDNAKNTVSLQMNSLKPEDTAVYYCAATGVLAGWAAGDGMDYWGKGTLVTVSS
B21: 01A09R3L His-tagged VHH (VHH)
VHH: EVQLVESGGGVVQAEDSLRLSCAASGLSFSLSRMGWFRQAPGKEREFVATIEWSGRSTYKYYDDSVKGRFAVSGDNTKNTMNLQMKGLNLEDTGVYYCAANPNNYGDPRTPGAYQYWGQGTQVTVSS
B22: 01E02R3LS His-tagged VHH (VHH)
VHH: EVQLVESGGGLVETGGSLRLSCAASGRTESTYTMAWFRQAPGKERERVATISFSGSTTTYLASVQGRFTISRDGAKNTIFLQMNGLKPEDTAVYYCALDTRRRVGSSPRFYDYWGQGTLVTVSS
B23: 01H08R3 His-tagged VHH (VHH)
VHH: QVQLVESGGGSVQTGGSLRLSCTASGRTFSNYGMGWFRQAPGKEREFVAGITRSGRTTYYYYADAVKGRFTIPRDNADNTIYLQMDSMKPDDTAVYYCAARQGENNYDPRSGSAYNYWGPGTQVTVSS
B24: 01A04R3LS His-tagged VHH (VHH)
VHH: QVQLVESGGGSVQPGGSLRLSCAASGIDVSISTIMWYRQPPGRQRELVADVIPSGRSTTYTESVKGRFTVTRDNAKNTVYLQMSGLKPEDTAVYYCNAFVRRENYWGQGTQVTVSS
B25: 01E05R2 His-tagged VHH (VHH)
VHH: QVQLVESGGGLVQAGGSLRLSCAASGRAFSSGRMGWFRQAPGKEREFVAAISWSGHTTYKYYADSVKGRFTISRENAKNTVSLQMNSLKPEDTAVYYCAARQSLVAGGDPRGQSEYDYWGQGTLVTVSS
B26: 01D04R3LS His-tagged VHH (VHH)
VHH: EVQLVESGGGLVQAGGSLRLSCAASGRTFRSYAMGWFRQAPGKEREFVADISWRGGRLYYADSVKGRFTISRDNAKNTVYLQMNSLKPEDTAVYYCAATGDQPAFTTAQGMGAMLEYDYWGQGTLVTVSS
B27: 01D01R3 His-tagged VHH (VHH)
VHH: EVQLVESGGGLVQAGGSLRLSCAASGRTFSVYGMGWFRQAPGQERAFVAAISWSDGSTYYADSVKGRFTISRDNAKNTMYLQMNSLKPEDTAVYFCAADLTGWGLDADVSEYDYWGQGTQVTVSS
B28: 01G04R3 His-tagged VHH (VHH)
VHH: B27 VHH with E1Q
B29: 01E03R2 His-tagged VHH (VHH)
VHH: B27 VHH with Q120L
B30: 02B11R3 His-tagged VHH (VHH)
VHH: EVQLVESGGGLVQAGGSLRLSCAASGRTFSPYGMGWFRQTPGKERAFVAAVDWNDGSTYYSDSVKGRFTISRDNAKNTVYLQMNSLKSEDTAVYYCAADLTGWGLDADVSEYDYWGQGTLVTVSS
B31: 01E01R3LS His-tagged VHH (VHH)
VHH: QVQLVESGGGLVQAGGSLRLSCAASGRSFSSYNMGWFRQAPGKERDLVAVVTWSGGGTSYADSVKGRFTIARDNANARLYLEMTSLKPEDTAIYYCAATQDWYGGTRAFRAASFHSWGQGTQVTVSS
B32: 01H03R2L His-tagged VHH (VHH)
VHH: B31 VHH with Q1E, Q13R, A71S, R110H, Q122L
B33: 01G07R2L His-tagged VHH (VHH)
VHH: QVQLVESGGGLVQPGGSLRLSCVASGLPFSSSRMAWFAQAPGKEREFVAAIGWRGRTSYKYYADSVKGRFTVSGDNAKKTLDLQMKDLKPEDTALYFCAAHPNDDGDPRISGNYQYWGQGTQVTVSS

Each binder was assayed against T1, recombinant human pIgR (hpIgR) (human, UniProt P01833 19-638, limits assumed) (assay: ELISA, periplasmic VHH, BSA subtracted).
T1 construct: probably the ECD
In short: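 His-tagged VHH in periplasmic extracts (osmotic shock, non-suppressor E. coli) were tested by ELISA for binding to pIgR. Bound nanobody was detected with polyclonal anti-alpaca VHH antibody in the initial screen and anti-VHH antibody on retest. Signal on BSA, run in parallel, was subtracted from the pIgR signal.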

T1 sequence (P01833 19-638 limits assumed): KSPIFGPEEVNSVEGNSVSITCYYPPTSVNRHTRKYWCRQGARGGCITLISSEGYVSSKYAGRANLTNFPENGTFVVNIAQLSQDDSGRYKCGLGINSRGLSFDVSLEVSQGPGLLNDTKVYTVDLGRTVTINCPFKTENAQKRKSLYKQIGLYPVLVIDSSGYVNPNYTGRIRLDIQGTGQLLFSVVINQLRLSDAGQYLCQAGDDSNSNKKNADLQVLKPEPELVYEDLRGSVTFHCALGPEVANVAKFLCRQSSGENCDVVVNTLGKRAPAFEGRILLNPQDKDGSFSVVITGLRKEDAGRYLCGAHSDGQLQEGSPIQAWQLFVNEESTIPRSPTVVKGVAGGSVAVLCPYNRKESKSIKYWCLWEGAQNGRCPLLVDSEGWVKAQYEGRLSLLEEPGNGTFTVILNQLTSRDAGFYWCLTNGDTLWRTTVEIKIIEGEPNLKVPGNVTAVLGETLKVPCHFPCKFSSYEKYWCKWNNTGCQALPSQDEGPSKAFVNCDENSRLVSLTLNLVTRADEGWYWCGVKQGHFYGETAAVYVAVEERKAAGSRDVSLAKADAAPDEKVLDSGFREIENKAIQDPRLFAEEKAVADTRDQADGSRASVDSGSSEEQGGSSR

Row | ELISA (OD) | Binder
1 | 0.55 OD | B1
2 | 0.74 OD | B2
3 | 1.85 OD | B3
4 | 1.98 OD | B4
5 | 2.12 OD | B5
6 | 2.14 OD | B6
7 | 2.15 OD | B7
8 | 2.45 OD | B8
9 | 2.09 OD | B9
10 | 1.07 OD | B10
11 | 1.96 OD | B11
12 | 1.85 OD | B12
13 | 1.97 OD | B13
14 | 0.48 OD | B14
15 | 1.9 OD | B15
16 | 2.13 OD | B16
17 | 1.3 OD | B17

Row | ELISA (OD) | Binder
18 | 2.19 OD | B18
19 | 1.68 OD | B19
20 | 2.4 OD | B20
21 | 1.98 OD | B21
22 | 1.69 OD | B22
23 | 1.11 OD | B23
24 | 2.15 OD | B24
25 | 2.1 OD | B25
26 | 2.06 OD | B26
27 | 1.95 OD | B27
28 | 0.73 OD | B28
29 | 2.13 OD | B29
30 | 1.35 OD | B30
31 | 2.2 OD | B31
32 | 2.18 OD | B32
33 | 1.54 OD | B33
